{"source": "patent US20240412835", "test_system": "PD-1 TALEN (left/right pair, split FokI) (synthetic construct)", "test": "cell_activity", "conditions": "median of 6 TIL lots (38.09-74.73), NGS; document lists two candidate PD-1 TALEN pairs and does not state which was used", "data": [{"substance": "PDCD1 exon 2 target site", "values": [{"measurement": "activity", "value": 54, "unit": "% indels"}]}]}
